Measurements from PMC6108177 (Nature structural & molecular biology, 2017).

B1: Human TRF1 TRFH domain (residues 65–267) (domain or fragment, UniProt P54274 65-267, looked up)
chain: GLVAEAEAVAAGWMLDFLCLSLCRAFRDGRSEDFRRTRNSAEAIIHGLSSLTACQLRTIYICQFLTRIAAGKTLDAQFENDERITPLESALMIWGSIEKEHDKLHEEIQNLIKIQAIAVCMENGNFKEAEEVFERIFGDPNSHMPFKSKLLMIISQKDTFHSFFQHFSYNHMMEKIKSYVNYVLSEKSSTFLMKAAAKVVESK

Columns and labels:
[1] = target: Human TRF1 TRFH domain (residues 65–267) (human) (UniProt P54274); experiment: ITC
crystal structure = target: the molecule itself; experiment: crystal structure

| Molecule | Kd [1] [µM] | stoichiometry N (crystal structure) |
| --- | --- | --- |
| Human TERB1 TBM (TRF1-binding motif, residues 642–656) (from UniProt Q8NA31-1 642-656) (peptide) | 5.6 |  |
| B1 |  | 2 |
